From US20180245061A1, “Modified Heterocyclase” (THE UNIVERSITY COURT OF THE UNIVERSITY OF ABERDEEN, priority 2014, published 2018)

B1: LynD K409E: LynD point mutant K409E (protein)
chain: MQSTPLLQIQPHFHVEVIEPKQVYLLGEQANHALTGQLYCQILPLLNGQYTLEQIVEKLDGEVPPEYIDYVLERLAEKGYLTEAAPELSSEVAAFWSELGIAPPVAAEALRQPVTLTPVGNISEVTVAALTTALRDIGISVQTPTEAGSPTALNVVLTDDYLQPELAKINKQALESQQTWLLVKPVGSVLWLGPVFVPGKTGCWDCLAHRLRGNREVEASVLRQKQAQQQRNGQSGSVIGCLPTARATLPSTLQTGLQFAATEIAKWIVKYHVNATAPGTVFFPTLDGKIITLNHSILDLKSHILIKRSQCPTCGDPKILQHRGFEPLKLESRPKQFTSDGGHRGTTPEQTVQKYQHLISPVTGVVTELVRITDPANPLVHTYRAGHSFGSATSLRGLRNTLKHKSSGEGKTDSQSKASGLCEAVERYSGIFQGDEPRKRATLAELGDLAIHPEQCLCFSDGQYANRETLNEQATVAHDWIPQRFDASQAIEWTPVWSLTEQTHKYLPTALCYYHYPLPPEHRFARGDSNGNAAGNTLEEAILQGFMELVERDGVALWWYNRLRRPAVDLGSFNEPYFVQLQQFYRENDRDLWVLDLTADLGIPAFAGVSNRKTGSSERLILGFGAHLDPTIAILRAVTEVNQIGLELDKVPDENLKSDATDWLITEKLADHPYLLPDTTQPLKTAQDYPKRWSDDIYTDVMTCVNIAQQAGLETLVIDQTRPDIGLNVVKVTVPGMRHFWSRFGEGRLYDVPVKLGWLDEPLTEAQMNPTPMPF
B2: LynD E423R: LynD point mutant E423R (protein)
chain: MQSTPLLQIQPHFHVEVIEPKQVYLLGEQANHALTGQLYCQILPLLNGQYTLEQIVEKLDGEVPPEYIDYVLERLAEKGYLTEAAPELSSEVAAFWSELGIAPPVAAEALRQPVTLTPVGNISEVTVAALTTALRDIGISVQTPTEAGSPTALNVVLTDDYLQPELAKINKQALESQQTWLLVKPVGSVLWLGPVFVPGKTGCWDCLAHRLRGNREVEASVLRQKQAQQQRNGQSGSVIGCLPTARATLPSTLQTGLQFAATEIAKWIVKYHVNATAPGTVFFPTLDGKIITLNHSILDLKSHILIKRSQCPTCGDPKILQHRGFEPLKLESRPKQFTSDGGHRGTTPEQTVQKYQHLISPVTGVVTELVRITDPANPLVHTYRAGHSFGSATSLRGLRNTLKHKSSGKGKTDSQSKASGLCRAVERYSGIFQGDEPRKRATLAELGDLAIHPEQCLCFSDGQYANRETLNEQATVAHDWIPQRFDASQAIEWTPVWSLTEQTHKYLPTALCYYHYPLPPEHRFARGDSNGNAAGNTLEEAILQGFMELVERDGVALWWYNRLRRPAVDLGSFNEPYFVQLQQFYRENDRDLWVLDLTADLGIPAFAGVSNRKTGSSERLILGFGAHLDPTIAILRAVTEVNQIGLELDKVPDENLKSDATDWLITEKLADHPYLLPDTTQPLKTAQDYPKRWSDDIYTDVMTCVNIAQQAGLETLVIDQTRPDIGLNVVKVTVPGMRHFWSRFGEGRLYDVPVKLGWLDEPLTEAQMNPTPMPF
B3: LynD K409A: LynD point mutant K409A (protein)
chain: MQSTPLLQIQPHFHVEVIEPKQVYLLGEQANHALTGQLYCQILPLLNGQYTLEQIVEKLDGEVPPEYIDYVLERLAEKGYLTEAAPELSSEVAAFWSELGIAPPVAAEALRQPVTLTPVGNISEVTVAALTTALRDIGISVQTPTEAGSPTALNVVLTDDYLQPELAKINKQALESQQTWLLVKPVGSVLWLGPVFVPGKTGCWDCLAHRLRGNREVEASVLRQKQAQQQRNGQSGSVIGCLPTARATLPSTLQTGLQFAATEIAKWIVKYHVNATAPGTVFFPTLDGKIITLNHSILDLKSHILIKRSQCPTCGDPKILQHRGFEPLKLESRPKQFTSDGGHRGTTPEQTVQKYQHLISPVTGVVTELVRITDPANPLVHTYRAGHSFGSATSLRGLRNTLKHKSSGAGKTDSQSKASGLCEAVERYSGIFQGDEPRKRATLAELGDLAIHPEQCLCFSDGQYANRETLNEQATVAHDWIPQRFDASQAIEWTPVWSLTEQTHKYLPTALCYYHYPLPPEHRFARGDSNGNAAGNTLEEAILQGFMELVERDGVALWWYNRLRRPAVDLGSFNEPYFVQLQQFYRENDRDLWVLDLTADLGIPAFAGVSNRKTGSSERLILGFGAHLDPTIAILRAVTEVNQIGLELDKVPDENLKSDATDWLITEKLADHPYLLPDTTQPLKTAQDYPKRWSDDIYTDVMTCVNIAQQAGLETLVIDQTRPDIGLNVVKVTVPGMRHFWSRFGEGRLYDVPVKLGWLDEPLTEAQMNPTPMPF

Each molecule was assayed on PatE′ (assay: Heterocyclization reaction with PatE′, MS analysis). Settings: PatE′ with 2 μM enzyme, 5 mM ATP, 5 mM MgCl2, 16 h at 37° C.; TABLE 1.
PatE′, sequence (as listed by the source): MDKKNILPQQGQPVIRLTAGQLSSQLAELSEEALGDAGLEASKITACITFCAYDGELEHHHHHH
Type: biochemical
Method: For all heterocyclization reactions, […] PatE′ (and variants,) was incubated with 2 μM enzyme in 150 mM NaCl, 10 mM HEPES pH 7.4, 1 mM TCEP, 5 mM ATP and 5 mM MgCl2 for 16 h at 37° C. Samples were analyzed by ESI or MALDI MS (LCT, Micromass or 4800 MALDI TOF/TOF Analyzer, ABSciex). For cis trans activation studies, 100 μM ITACITFCAYDG synthetic test peptide (Peptide Protein Research Ltd) was reacted with 5 μM heterocyclase enzyme in the presence and absence of 5.5 μM LAELSEEAL synthetic peptide, or 5.5 μM full-length PatE′4 leader peptide. The reaction was carried out in 150 mM NaCl, 10 mM HEPES pH 7.4, 1 mM TCEP, 5 mM ATP and 5 mM MgCl2 for 16 h at 37° C. and analyzed as above. Synthetic peptides were purchased from Peptide Protein Research Ltd.

Compared with B1, B2 is lower in “No. of heterocycles (PatE′)” value: 2 for the first, 0 for the second.

For B3, the “No. of heterocycles (PatE′)” value was 1.
